# Experimental data taken from publication PMC7542365 (mBio, 2020).
# Biological target: A/Anhui/1/2013 H7N9 NA, thrombin-digested (for crystals) (influenza A virus A/Anhui/1/2013 (H7N9))
# Assay: crystal structure
substance,measurement,value
"A/Anhui/1/2013 H7N9 NA, thrombin-digested (for crystals) (domain or fragment)",stoichiometry N,4
